Experimental data as given in patent US20030148956A1 (PROCTER AND GAMBLE, published 2003).
Ends that are not written are not given here.

T1: corticotropin releasing factor 2 receptor
T1 sequence (Q13324 whole entry, species assumed, looked up): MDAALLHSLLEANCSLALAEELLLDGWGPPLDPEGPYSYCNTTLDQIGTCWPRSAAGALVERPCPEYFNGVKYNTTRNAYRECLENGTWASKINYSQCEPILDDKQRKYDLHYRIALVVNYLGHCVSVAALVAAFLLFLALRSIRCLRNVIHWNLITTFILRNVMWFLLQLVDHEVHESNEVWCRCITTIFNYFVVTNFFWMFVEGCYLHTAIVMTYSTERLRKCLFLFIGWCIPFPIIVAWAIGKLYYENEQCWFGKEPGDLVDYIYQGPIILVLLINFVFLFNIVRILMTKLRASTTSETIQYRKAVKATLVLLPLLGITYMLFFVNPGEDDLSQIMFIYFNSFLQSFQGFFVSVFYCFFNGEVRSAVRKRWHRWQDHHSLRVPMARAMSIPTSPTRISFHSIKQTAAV


How the values were obtained:
[1] = target: corticotropin releasing factor 1 receptor; test: cell-based or functional assay
[2] = target: T1, corticotropin releasing factor 2 …; test: cell-based or functional assay

CRF1R EC50 [1] [nM]	CRF1R Emax % [1] [%]	CRF2R EC50 [2] [nM]	CRF2R Emax % [2] [%]	Binder
1000		50.4		IVLSLDVPIGLLQILLEQARARAAREQATTNARILARVM-NH2 [SEQ ID NO 368]
1000	9	100	46	IVLSLDVPIGLLQILLEKAAAEAEAAAKAAQEQILAHV-NH2 [SEQ ID NO 366]
1000	20	25.1	100	ZGPPISIDLPFQLLRKAIEIEKQEKEKQQATTNARLLDRV (C-terminal amide) [SEQ ID NO 363]
1000	33	51	75	IVLSLDVSIGLLQILLEQARARAAREQATTNARILARV-NH2 [SEQ ID NO 370]
1000	22	6.62	97	IVLSLDVPIHLLQILLEQARARAAREQATTNARILARV-NH2 [SEQ ID NO 371]
386	100	4.39	100	ZGPPISIDLPFQLLRKIIEIEKQEKEKQQAANNALLLATI (C-terminal amide) [SEQ ID NO 362]
1000	25	19.2	83	ZGPPISIDVPYHLLRKVIEIEKQEKEKQQAANNARLLARI (C-terminal amide) [SEQ ID NO 377]
1000	36	14.9	100	ZGPPISIDVPYYLLRKVIEIEKQEKEKQQAANNARLLARI (C-terminal amide) [SEQ ID NO 378]
1000	13	14.2	100	ZGPPISIDVPYWLLRKVIEIEKQEKEKQQAANNARLLDTI (C-terminal amide) [SEQ ID NO 372]
157	100	6.12	93	ZGPPISIDLPFQLLRLLIEIEKQEKEKQQAANNALLLATI (C-terminal amide) [SEQ ID NO 360]
1000	21	23.4	94	ZGPPISIDLPFQLLRKAIEIEKQEKEKQQAANNALLLDTI (C-terminal amide) [SEQ ID NO 365]
1000	27	13.2	100	ZGPPISIDLPFQLLRKAIEIEKQEKEKQQAANNALLLATI (C-terminal amide) [SEQ ID NO 364]
1000	9	11.5	100	ZGPPISIDVPYWLLRKVIEIEKQEKEKQQAANNARLLARI (C-terminal amide) [SEQ ID NO 373]
1000	8	52.5	100	ZGPPISIDVPYHLLRKVIEIEKQEKEKQQAANNARLLDTI (C-terminal amide) [SEQ ID NO 376]
149	100	6.37	99	ZGPPISIDLPFQLLRVLIEIEKQEKEKQQAANNALLLATI (C-terminal amide) [SEQ ID NO 361]
1000	11	15.8	91	ZGPPISIDVPYQLLRKVIEIEKQEKEKQQAANNARLLDTI (C-terminal amide) [SEQ ID NO 374]
1000	22	11.5	100	ZGPPISIDVPYQLLRKVIEIEKQEKEKQQAANNARLLARI (C-terminal amide) [SEQ ID NO 375]
1000	4	100	18	IVLSLDVPIGLLQILLEQARHAHAHAHAHAQAHILAHV-NH2 [SEQ ID NO 369]
1000	6	100	18	IVLSLDVPIGLLQILLEQARHAAAHAAAHAQAHILAHV-NH2 [SEQ ID NO 367]

Continued, binder first:

Binder	CRF1R EC50 [1] [nM]	CRF1R Emax % [1] [%]	CRF2R EC50 [2] [nM]	CRF2R Emax % [2] [%]
DNPSLSIDLPLILLRTLLELEKTQSQRERAEQNAIIFASV-NH2 [SEQ ID NO 345]	1000	18.8	39.7	100
DNPSLSIDLPLFLLRTLLELEKTQSQRERAEQNAIIFASV-NH2 [SEQ ID NO 343]	783	62.5	13.6	96.5
Ac-DNPSLSIDLPLLLLRTLLELEKTQSQRERAEQNAIIFASV-NH2 [SEQ ID NO 347]	1000		22.4	
IVLSLDVPIGLLQILLEQARARAAREQATTNARILARVM-NH2 [SEQ ID NO 356]	1000		83	
Ac-PSLSIDLPLLLLRTLLELEKTQSQRERAEQNAIIFASV-NH2 [SEQ ID NO 348]	630		5.77	
PSLSIDLPLLLLRTLLELEKTQSQRERAEQNAIIFASV-NH2 [SEQ ID NO 344]	650		4.3	
ZGPPISIDLPFQLLRKVIEIEKQEKEKQQATTNARLLDRV (C-terminal amide) [SEQ ID NO 351]	1000	85.7	12.9	97.4
ZGPPISIDLPLYLLRKMIEIEKQEKEKQQATTNARILARV (C-terminal amide) [SEQ ID NO 353]	230	92.2	4.75	89.9
Ac-IVLSLDVPIGLLQILLEQARARAAREQATTNARILARV-NH2 [SEQ ID NO 354]	1000	13.4	6.48	100
DNPSLSIDLPLLLLRTLLELEKTQSQRERAEQNAIIFASV-NH2 [SEQ ID NO 346]	1000		8.48	
ZGPPISIDLPLQLLRKVIEIEKQEKEKQQAANNALLLATI (C-terminal amide) [SEQ ID NO 349]	1000	44.2	13.8	100
ZGPPISIDLPFQLLRKVIEIEKQEKEKQQAANNALLLDTI (C-terminal amide) [SEQ ID NO 350]	1000	48	11.6	98.1
ZGPPISIDLPFQLLREVIEIEKQEKEKQQAANNALLLATI (C-terminal amide) [SEQ ID NO 359]	230	100	23.1	100
ZGPPISIDLPFQLLRKVIEIEKQEKEKQQAANNALLLATI (C-terminal amide) [SEQ ID NO 352]	780	82.6	8.26	83.7
ZGPPISIDLPFQLLRKLIEIEKQEKEKQQAANNALLLATI (C-terminal amide) [SEQ ID NO 357]	331	100	6.44	100
ZGPPISIDLSLELLRKMIEIEKQEKEKQQAANNRLLLDTI (C-terminal amide) [SEQ ID NO 355]	18	100	6.03	95
DNPSLSIDLPLLLLRTLLELEKTQSQRERAEQNARIFARV-NH2 [SEQ ID NO 341]	850	82.3	8.83	95.5
ZGPPISIDLPFQLLRILIEIEKQEKEKQQAANNALLLAT (C-terminal amide) [SEQ ID NO 358]	99	100	5.56	100
DNPSLSIDLPLQLLRTLLELEKTQSQRERAEQNAIIFASV-NH2 [SEQ ID NO 342]	1000	19.6	20.2	92.2
